Assay results reported in paper PMC5260945 (Nature structural & molecular biology, 2011).

B1: TRABID AnkUBD (aa 245-339) (domain or fragment)
chain: LEVDFKKLKQIKNRMKKTDWLFLNACVGVVEGDLAAIEAYKSSGGDIARQLTADEVRLLNRPSAFDVGYTLVHLAIRFQRQDMLAILLTEVSQQA
B2: TRABID AnkUBD H317A (domain or fragment)
chain: LEVDFKKLKQIKNRMKKTDWLFLNACVGVVEGDLAAIEAYKSSGGDIARQLTADEVRLLNRPSAFDVGYTLVALAIRFQRQDMLAILLTEVSQQA

What was measured:
15N-labeled Ub = 15N-labeled Ub (UniProt P0CG47 1-76); experiment: NMR titration
[1] = molecular target: Unlabeled Ub (from bovine red blood cells, Sigma-Aldrich) (bovine, UniProt P0CG53 1-76); experiment: NMR titration

| Binder | Kd (15N-labeled Ub) [µM] | binding result [1] |
| --- | --- | --- |
| B1 | 134 ± 19 | binds |
| B2 | > 1200 | – |
